Data from the supplement of paper PMC5998384.

Experiments:
[1] = test system: HeLa Kyoto; test: solubility in G1/S (NP-40 vs SDS abundance) (log2 ratio); higher = more soluble; details: cell cycle stage: G1/S
[2] = test system: HeLa Kyoto; test: melting temperature (median over replicates), in situ; higher = more thermally stable
[3] = test system: HeLa Kyoto; test: solubility change mitosis vs G1/S (difference of NP-40 vs SDS log2 ratios) (log2 ratio difference); higher = more soluble in mitosis
[4] = test system: HeLa Kyoto; test: thermal stability score vs G1/S (z-score of summed log2 fold changes over temperatures); higher = more thermally stable than in G1/S
[5] = cell cycle stage: early G1 (4.5 h after nocodazole release)
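Throughout, for melting temperature (median over replicates), in situ: HeLa Kyoto cells synchronized by double thymidine or nocodazole block, proteins quantified by TMT10plex mass spectrometry, three independent biological replicates.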
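Throughout, for solubility change mitosis vs G1/S (difference of NP-40 vs SDS log2 ratios): synchronized HeLa Kyoto cells (double thymidine block for G1/S, nocodazole release for mitosis), protein amounts in NP-40 versus SDS lysates quantified by mass spectrometry, three biological replicates.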
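Throughout, for solubility in G1/S (NP-40 vs SDS abundance): HeLa Kyoto cells arrested at G1/S by double thymidine block, proteins quantified by TMT10plex mass spectrometry in mild NP-40 versus SDS extracts, three biological replicates.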
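Throughout, for thermal stability score vs G1/S (z-score of summed log2 fold changes over temperatures): synchronized HeLa Kyoto cells, proteins quantified by TMT10plex mass spectrometry, three biological replicates, mitosis taken 0.5 h after nocodazole release, G1/S directly after double thymidine block.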

MTSGATRYRLSCSLRGHELDVRGLVCCAYPPGAFVSVSRDRTTRLWAPDSPNRSFTEMHCMSGHSNFVSCVCIIPSSDIYPHGLIATGGNDHNICIFSLDSPMPLYILKGHKNTVCSLSSGKFGTLLSGSWDTTAKVWLNDKCMMTLQGHTAAVWAVKILPEQGLMLTGSADKTVKLWKAGRCERTFSGHEDCVRGLAILSETEFLSCANDASIRRWQITGECLEVYYGHTNYIYSISVFPNCRDFVTTAEDRSLRIWKHGECAQTIRLPAQSIWCCCVLDNGDIVVGASDGIIRVFTESEDRTASAEEIKAFEKELSHATIDSKTGDLGDINAEQLPGREHLNEPGTREGQTRLIRDGEKVEAYQWSVSEGRWIKIGDVVGSSGANQQTSGKVLYEGKEFDYVFSIDVNEGGPSYKLPYNTSDDPWLTAYNFLQKNDLNPMFLDQVAKFIIDNTKGQMLGLGNPSFSDPFTGGGRYVPGSSGSSNTLPTADPFTGAGRYVPGSASMGTTMAGVDPFTGNSAYRSAASKTMNIYFPKKEAVTFDQANPTQILGKLKELNGTAPEEKKLTEDDLILLEKILSLICNSSSEKPTVQQLQILWKAINCPEDIVFPALDILRLSIKHPSVNENFCNEKEGAQFSSHLINLLNPKGKPANQLLALRTFCNCFVGQAGQKLMMSQRESLMSHAIELKSGSNKNIHIALATLALNYSVCFHKDHNIEGKAQCLSLISTILEVVQDLEATFRLLVALGTLISDDSNAVQLAKSLGVDSQIKKYSSVSEPAKVSECCRFILNLL [PLAA]
solubility in G1/S (log2) [1]: -0.0389 | melting temperature ([2]; cell cycle stage: G1/S): 49.5 °C | melting temperature ([2]; cell cycle stage: mitosis): 50 °C | solubility change mitosis (log2) [3]: -0.198 | thermal stability score [4, 5]: 1.32 | thermal stability score ([4]; cell cycle stage: mitosis): 1.3

MTSHYVIAIFALMSSCLATAGPEPGALCELSPVSASHPVQALMESFTVLSGCASRGTTGLPQEVHVLNLRTAGQGPGQLQREVTLHLNPISSVHIHHKSVVFLLNSPHPLVWHLKTERLATGVSRLFLVSEGSVVQFSSANFSLTAETEERNFPHGNEHLLNWARKEYGAVTSFTELKIARNIYIKVGEDQVFPPKCNIGKNFLSLNYLAEYLQPKAAEGCVMSSQPQNEEVHIIELITPNSNPYSAFQVDITIDIRPSQEDLEVVKNLILILKCKKSVNWVIKSFDVKGSLKIIAPNSIGFGKESERSMTMTKSIRDDIPSTQGNLVKWALDNGYSPITSYTMAPVANRFHLRLENNAEEMGDEEVHTIPPELRILLDPGALPALQNPPIRGGEGQNGGLPFPFPDISRRVWNEEGEDGLPRPKDPVIPSIQLFPGLREPEEVQGSVDIALSVKCDNEKMIVAVEKDSFQASGYSGMDVTLLDPTCKAKMNGTHFVLESPLNGCGTRPRWSALDGVVYYNSIVIQVPALGDSSGWPDGYEDLESGDNGFPGDMDEGDASLFTRPEIVVFNCSLQQVRNPSSFQEQPHGNITFNMELYNTDLFLVPSQGVFSVPENGHVYVEVSVTKAEQELGFAIQTCFISPYSNPDRMSHYTIIENICPKDESVKFYSPKRVHFPIPQADMDKKRFSFVFKPVFNTSLLFLQCELTLCTKMEKHPQKLPKCVPPDEACTSLDASIIWAMMQNKKTFTKPLAVIHHEAESKEKGPSMKEPNPISPPIFHGLDTLTVMGIAFAAFVIGALLTGALWYIYSHTGETAGRQQVPTSPPASENSSAAHSIGSTQSTPCSSSSTA [TGFBR3]
solubility in G1/S (log2) [1]: -0.155 | melting temperature ([2]; cell cycle stage: G1/S): 53.8 °C | melting temperature ([2]; cell cycle stage: mitosis): 54.4 °C | solubility change mitosis (log2) [3]: -0.094 | thermal stability score [4, 5]: 1.1 | thermal stability score ([4]; cell cycle stage: mitosis): 2.26

MTSKKLVNSVAGCADDALAGLVACNPNLQLLQGHRVALRSDLDSLKGRVALLSGGGSGHEPAHAGFIGKGMLTGVIAGAVFTSPAVGSILAAIRAVAQAGTVGTLLIVKNYTGDRLNFGLAREQARAEGIPVEMVVIGDDSAFTVLKKAGRRGLCGTVLIHKVAGALAEAGVGLEEIAKQVNVVAKAMGTLGVSLSSCSVPGSKPTFELSADEVELGLGIHGEAGVRRIKMATADEIVKLMLDHMTNTTNASHVPVQPGSSVVMMVNNLGGLSFLELGIIADATVRSLEGRGVKIARALVGTFMSALEMPGISLTLLLVDEPLLKLIDAETTAAAWPNVAAVSITGRKRSRVAPAEPQEAPDSTAAGGSASKRMALVLERVCSTLLGLEEHLNALDRAAGDGDCGTTHSRAARAIQEWLKEGPPPASPAQLLSKLSVLLLEKMGGSSGALYGLFLTAAAQPLKAKTSLPAWSAAMDAGLEAMQKYGKAAPGDRTMLDSLWAAGQELQAWKSPGADLLQVLTKAVKSAEAAAEATKNMEAGAGRASYISSARLEQPDPGAVAAAAILRAILEVLQS [TKFC]
solubility in G1/S (log2) [1]: 0.321 | melting temperature ([2]; cell cycle stage: G1/S): 54.8 °C | melting temperature ([2]; cell cycle stage: mitosis): 55 °C | solubility change mitosis (log2) [3]: -0.0666 | thermal stability score [4, 5]: 1.34 | thermal stability score ([4]; cell cycle stage: mitosis): 0.558

MTSLMPGAGLLPIPTPNPLTTLGVSLSSLGAIPAAALDPNIATLGEIPQPPLMGNVDPSKIDEIRRTVYVGNLNSQTTTADQLLEFFKQVGEVKFVRMAGDETQPTRFAFVEFADQNSVPRALAFNGVMFGDRPLKINHSNNAIVKPPEMTPQAAAKELEEVMKRVREAQSFISAAIEPESGKSNERKGGRSRSHTRSKSRSSSKSHSRRKRSQSKHRSRSHNRSRSRQKDRRRSKSPHKKRSKSRERRKSRSRSHSRDKRKDTREKIKEKERVKEKDREKEREREKEREKEKERGKNKDRDKEREKDREKDKEKDREREREKEHEKDRDKEKEKEQDKEKEREKDRSKEIDEKRKKDKKSRTPPRSYNASRRSRSSSRERRRRRSRSSSRSPRTSKTIKRKSSRSPSPRSRNKKDKKREKERDHISERRERERSTSMRKSSNDRDGKEKLEKNSTSLKEKEHNKEPDSSVSKEVDDKDAPRTEENKIQHNGNCQLNEENLSTKTEAV [SREK1]
solubility in G1/S (log2) [1]: -0.849 | melting temperature ([2]; cell cycle stage: G1/S): 48.9 °C | melting temperature ([2]; cell cycle stage: mitosis): 50.6 °C | solubility change mitosis (log2) [3]: 0.262 | thermal stability score [4, 5]: 1.86 | thermal stability score ([4]; cell cycle stage: mitosis): 4.67

MTTEKSLVTEAENSQHQQKEEGEEAINSGQQEPQQEESCQTAAEGDNWCEQKLKASNGDTPTHEDLTKNKERTSESRGLSRLFSSFLKRPKSQVSEEEGKEVESDKEKGEGGQKEIEFGTSLDEEIILKAPIAAPEPELKTDPSLDLHSLSSAETQPAQEELREDPDFEIKEGEGLEECSKIEVKEESPQSKAETELKASQKPIRKHRNMHCKVSLLDDTVYECVVEKHAKGQDLLKRVCEHLNLLEEDYFGLAIWDNATSKTWLDSAKEIKKQVRGVPWNFTFNVKFYPPDPAQLTEDITRYYLCLQLRQDIVAGRLPCSFATLALLGSYTIQSELGDYDPELHGVDYVSDFKLAPNQTKELEEKVMELHKSYRSMTPAQADLEFLENAKKLSMYGVDLHKAKDLEGVDIILGVCSSGLLVYKDKLRINRFPWPKVLKISYKRSSFFIKIRPGEQEQYESTIGFKLPSYRAAKKLWKVCVEHHTFFRLTSTDTIPKSKFLALGSKFRYSGRTQAQTRQASALIDRPAPHFERTASKRASRSLDGAAAVDSADRSPRPTSAPAITQGQVAEGGVLDASAKKTVVPKAQKETVKAEVKKEDEPPEQAEPEPTEAWKVEKTHIEVTVPTSNGDQTQKLAEKTEDLIRMRKKKRERLDGENIYIRHSNLMLEDLDKSQEEIKKHHASISELKKNFMESVPEPRPSEWDKRLSTHSPFRTLNINGQIPTGEGPPLVKTQTVTISDNANAVKSEIPTKDVPIVHTETKTITYEAAQTDDNSGDLDPGVLLTAQTITSETPSSTTTTQITKTVKGGISETRIEKRIVITGDADIDHDQVLVQAIKEAKEQHPDMSVTKVVVHQETEIADE [EPB41]
solubility in G1/S (log2) [1]: -0.0892 | melting temperature ([2]; cell cycle stage: G1/S): 51.6 °C | melting temperature ([2]; cell cycle stage: mitosis): 51.6 °C | solubility change mitosis (log2) [3]: -0.0541 | thermal stability score [4, 5]: -0.449 | thermal stability score ([4]; cell cycle stage: mitosis): -0.552

MTTSHQPQDRYKAVWLIFFMLGLGTLLPWNFFMTATQYFTNRLDMSQNVSLVTAELSKDAQASAAPAAPLPERNSLSAIFNNVMTLCAMLPLLLFTYLNSFLHQRIPQSVRILGSLVAILLVFLITAILVKVQLDALPFFVITMIKIVLINSFGAILQGSLFGLAGLLPASYTAPIMSGQGLAGFFASVAMICAIASGSELSESAFGYFITACAVIILTIICYLGLPRLEFYRYYQQLKLEGPGEQETKLDLISKGEEPRAGKEESGVSVSNSQPTNESHSIKAILKNISVLAFSVCFIFTITIGMFPAVTVEVKSSIAGSSTWERYFIPVSCFLTFNIFDWLGRSLTAVFMWPGKDSRWLPSLVLARLVFVPLLLLCNIKPRRYLTVVFEHDAWFIFFMAAFAFSNGYLASLCMCFGPKKVKPAEAETAGAIMAFFLCLGLALGAVFSFLFRAIV [SLC29A1]
solubility in G1/S (log2) [1]: -0.149 | melting temperature ([2]; cell cycle stage: G1/S): 58.4 °C | melting temperature ([2]; cell cycle stage: mitosis): 61.1 °C | solubility change mitosis (log2) [3]: -0.151 | thermal stability score [4, 5]: 1.53 | thermal stability score ([4]; cell cycle stage: mitosis): 0.495

MTTYSDKGAKPERGRFLHFHSVTFWVGNAKQATSFYCSKMGFEPLAYRGLETGSREVVSHVIKQGKIVFVLSSALNPWNKEMGDHLVKHGDGVKDIAFEVEDCDYIVQKARERGAKIMREPWVEQDKFGKVKFAVLQTYGDTTHTLVEKMNYIGQFLPGYEAPAFMDPLLPKLPKCSLEMIDHIVGNQPDQEMVSASEWYLKNLQFHRFWSVDDTQVHTEYSSLRSIVVANYEESIKMPINEPAPGKKKSQIQEYVDYNGGAGVQHIALKTEDIITAIRHLRERGLEFLSVPSTYYKQLREKLKTAKIKVKENIDALEELKILVDYDEKGYLLQIFTKPVQDRPTLFLEVIQRHNHQGFGAGNFNSLFKAFEEEQNLRGNLTNMETNGVVPGM [HPD]
solubility in G1/S (log2) [1]: 0.143 | melting temperature ([2]; cell cycle stage: G1/S): 53.6 °C | melting temperature ([2]; cell cycle stage: mitosis): 53.5 °C | solubility change mitosis (log2) [3]: -0.0296 | thermal stability score [4, 5]: 1.14 | thermal stability score ([4]; cell cycle stage: mitosis): 1.46

MTVARPSVPAALPLLGELPRLLLLVLLCLPAVWGDCGLPPDVPNAQPALEGRTSFPEDTVITYKCEESFVKIPGEKDSVICLKGSQWSDIEEFCNRSCEVPTRLNSASLKQPYITQNYFPVGTVVEYECRPGYRREPSLSPKLTCLQNLKWSTAVEFCKKKSCPNPGEIRNGQIDVPGGILFGATISFSCNTGYKLFGSTSSFCLISGSSVQWSDPLPECREIYCPAPPQIDNGIIQGERDHYGYRQSVTYACNKGFTMIGEHSIYCTVNNDEGEWSGPPPECRGKSLTSKVPPTVQKPTTVNVPTTEVSPTSQKTTTKTTTPNAQATRSTPVSRTTKHFHETTPNKGSGTTSGTTRLLSGHTCFTLTGLLGTLVTMGLLT [CD55]
solubility in G1/S (log2) [1]: -0.786 | melting temperature ([2]; cell cycle stage: G1/S): 63.5 °C | melting temperature ([2]; cell cycle stage: mitosis): 63.9 °C | solubility change mitosis (log2) [3]: -0.0285 | thermal stability score [4, 5]: -1.88 | thermal stability score ([4]; cell cycle stage: mitosis): -1.77

MUC16
solubility in G1/S (log2) [1]: -0.172 | melting temperature ([2]; cell cycle stage: G1/S): 53.5 °C | melting temperature ([2]; cell cycle stage: mitosis): 53.5 °C | solubility change mitosis (log2) [3]: -0.177 | thermal stability score [4, 5]: -2.6 | thermal stability score ([4]; cell cycle stage: mitosis): -5.24

MVAPGSVTSRLGSVFPFLLVLVDLQYEGAECGVNADVEKHLELGKKLLAAGQLADALSQFHAAVDGDPDNYIAYYRRATVFLAMGKSKAALPDLTKVIQLKMDFTAARLQRGHLLLKQGKLDEAEDDFKKVLKSNPSENEEKEAQSQLIKSDEMQRLRSQALNAFGSGDYTAAIAFLDKILEVCVWDAELRELRAECFIKEGEPRKAISDLKAASKLKNDNTEAFYKISTLYYQLGDHELSLSEVRECLKLDQDHKRCFAHYKQVKKLNKLIESAEELIRDGRYTDATSKYESVMKTEPSIAEYTVRSKERICHCFSKDEKPVEAIRVCSEVLQMEPDNVNALKDRAEAYLIEEMYDEAIQDYETAQEHNENDQQIREGLEKAQRLLKQSQKRDYYKILGVKRNAKKQEIIKAYRKLALQWHPDNFQNEEEKKKAEKKFIDIAAAKEVLSDPEMRKKFDDGEDPLDAESQQGGGGNPFHRSWNSWQGFNPFSSGGPFRFKFHFN [DNAJC3]
solubility in G1/S (log2) [1]: 0.202 | melting temperature ([2]; cell cycle stage: G1/S): 53.3 °C | melting temperature ([2]; cell cycle stage: mitosis): 54.4 °C | solubility change mitosis (log2) [3]: -0.0724 | thermal stability score [4, 5]: 5 | thermal stability score ([4]; cell cycle stage: mitosis): 3.84
